3 substances from patent publication US5573928A, “Porcine vasoactive intestinal peptide receptor and DNA” (Eli Lilly and Company, priority 1993, dated 1996) can be followed below.

Where no end group is shown, it is not given here.

The target of the test is T1, pVIP receptor (Sus scrofa, UniProt Q28992).
T1 sequence (Q28992 32-458): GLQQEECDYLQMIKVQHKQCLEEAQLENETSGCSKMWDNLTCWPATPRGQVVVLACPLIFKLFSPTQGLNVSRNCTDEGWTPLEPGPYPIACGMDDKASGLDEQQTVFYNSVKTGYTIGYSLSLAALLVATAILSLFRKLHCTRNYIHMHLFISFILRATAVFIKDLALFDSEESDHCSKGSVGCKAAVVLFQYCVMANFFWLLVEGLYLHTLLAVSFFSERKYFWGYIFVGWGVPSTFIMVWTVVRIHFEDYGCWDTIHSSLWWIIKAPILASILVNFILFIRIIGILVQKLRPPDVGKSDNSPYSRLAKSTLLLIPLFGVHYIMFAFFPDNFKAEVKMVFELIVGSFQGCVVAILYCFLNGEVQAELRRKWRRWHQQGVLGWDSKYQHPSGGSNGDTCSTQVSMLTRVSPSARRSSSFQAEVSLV
The experiment in a line: cAMP assay in 293/VIPR cells expressing the pVIP receptor. Format: cell-based, porcine. Conditions: for intracellular [cAMP]: 293/VIPR cells, 45 min at 37° C. The method, then:
Briefly, a double stranded counterpart to Sequence ID#i, externally modified to incorporate convenient restriction sites, was integrated into the pRc/CMV vector and recombinantly expressed in 293 cells. The cDNA transcript included the signal peptide region of the native transcript facilitating proper orientation and integration into the transfected cell membrane. […] The cAMP level was also measured upon exposure of the transfected cells in response to the addition of secretin, and GHRH, two peptides closely related to VIP.
After removing the solution, 0.5 ml of 60% ethanol was added to lyse the cells in each well. An aliquot was taken, dried in vacUo, and the level of cAMP was determined.
Cells were washed twice with the incubation buffer (Dulbecco's modified Eagle's medium containing 0.5 mM 1-methyl-3-isobutylxanthine and 1 mg/ml BSA). […] After removing the buffer, 0.5 ml of 60% ethanol was added to lyse the cells in each well.

As for “GHRH: growth hormone-releasing hormone, a peptide closely related to VIP”, the “intracellular [cAMP]” value (hormone concentration 10^-6 M) is on record as 400 pmoles/10^5 cells; the “intracellular [cAMP]” value (hormone concentration 10^-7 M) stood at 404 pmoles/10^5 cells; the “intracellular [cAMP]” value (hormone concentration 10^-8 M) is on record as 400 pmoles/10^5 cells; the “intracellular [cAMP]” value (hormone concentration 10^-9 M) was 105 pmoles/10^5 cells; the “intracellular [cAMP]” value (hormone concentration 10^-10 M) is given as < 10 pmoles/10^5 cells; the “intracellular [cAMP]” value (hormone concentration 10^-11 M) is listed as < 10 pmoles/10^5 cells.

Take “porcine secretin (HSDGTFTSELSRLRDSARLQRLLQGLV; ends and bridges not checked; UniProt P63298 33-59, looked up) [peptide hormone closely related to VIP, commercially available from Peninsula Laboratories]”: the “intracellular [cAMP]” value is listed as 440 pmoles/10^5 cells (hormone concentration 10^-6 M); 240 pmoles/10^5 cells (hormone concentration 10^-7 M); 185 pmoles/10^5 cells (hormone concentration 10^-8 M); 28 pmoles/10^5 cells (hormone concentration 10^-9 M); < 10 pmoles/10^5 cells (hormone concentration 10^-10 M); < 10 pmoles/10^5 cells (hormone concentration 10^-11 M).

As to “porcine vasoactive intestinal polypeptide [VIP]”, the “intracellular [cAMP]” value is reported as 420 pmoles/10^5 cells (hormone concentration 10^-6 M); 440 pmoles/10^5 cells (hormone concentration 10^-7 M); 404 pmoles/10^5 cells (hormone concentration 10^-8 M); 64 pmoles/10^5 cells (hormone concentration 10^-9 M); 15 pmoles/10^5 cells (hormone concentration 10^-10 M); < 10 pmoles/10^5 cells (hormone concentration 10^-11 M). Moreover, the “intracellular cAMP levels upon exposure (in words)” value (transfected 293 cells expressing the protein of Sequence ID#2) was “intracellular increase in cAMP levels”.
